The source of these data is patent US20040106134A1 (Regeneron, published 2004).

Assay [1] has as its target T1, human BMP-5 (human, UniProt P22003 317-454, limits assumed).
T1 construct: Bought from R&D Systems
T1 sequence (looked up): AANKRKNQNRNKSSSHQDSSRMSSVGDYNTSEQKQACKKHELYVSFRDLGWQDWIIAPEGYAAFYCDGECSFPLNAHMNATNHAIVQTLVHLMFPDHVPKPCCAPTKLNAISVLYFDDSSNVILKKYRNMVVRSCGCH
In words: co-immunoprecipitation with anti-myc 9E10 beads, western blot. The method, then:
(§1) Human DCR5-myc3 (1 ml of COS7 cell-derived serum-free conditioned media described supra) was co-incubated with human BMP-2 (1 μg/ml), or human BMP-4 (0.5 μg/1 ml) (R&D Systems), or human BMP-5 ([…]) (R&D Systems), or mouse Nodal (also known as mBMP-16; provided as ³⁵S-mouse Nodal expressed in X. laevis oocytes), or human BMP-11 (also known as human GDF-11; provided as ³⁵S-human BMP-11 expressed in X. laevis oocytes), in the absence or in the presence of human noggin protein hNGAB2 (described in published PCT application publication no. WO 99/03996, published Jan. 28, 1999, and incorporated in its entirety herein by reference), 2 to 5 μg/ml. The formation of a stable complex between human DCR5-myc3 and the different BMP family members was determined by immunoprecipitating human DCR5-myc3 and associated proteins using the anti-myc monoclonal antibody (9E10; 1 μg/ml) bound to Protein A Ultralink (Pierce). The binding reaction was carried out in the serum-free conditioned media containing 20 mM Tris pH 7.6, 150 mM NaCl, 0.1% Tween 20 (TBST), and 1 mg/ml bovine serum albumin (BSA). Binding was allowed to proceed for 1 hour at 25° C. in a reaction volume of 1.1 ml, with continuous mixing to keep the Protein A-Ultralink (Pierce) in suspension. […]
Background: A western blot detects proteins with antibodies after separation by electrophoresis.

In assay [2] the target is T2, mouse Nodal (mouse, UniProt P43021 245-354, limits assumed, 35S-labelled).
T2 construct: Provided as 35S-labelled protein expressed in X. laevis oocytes; also called mBMP-16; 35S-mouse Nodal
T2 sequence (looked up): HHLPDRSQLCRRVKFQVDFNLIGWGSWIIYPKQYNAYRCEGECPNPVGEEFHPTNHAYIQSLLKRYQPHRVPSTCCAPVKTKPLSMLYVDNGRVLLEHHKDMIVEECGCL
In words: co-immunoprecipitation with anti-myc 9E10 beads, 35S-labelled Nodal. As for the experimental part: as §1

Assay [3] concerns the target T3, human BMP-11 (human, UniProt O95390 299-407, limits assumed, 35S-labelled).
T3 construct: Provided as 35S-labelled protein expressed in X. laevis oocytes; also called human GDF-11; GDF-11
T3 sequence (looked up): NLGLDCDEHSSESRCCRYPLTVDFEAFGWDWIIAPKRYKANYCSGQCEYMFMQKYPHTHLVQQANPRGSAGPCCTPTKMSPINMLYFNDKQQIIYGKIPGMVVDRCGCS
In words: co-immunoprecipitation with anti-myc 9E10 beads, 35S-labelled BMP-11. The method, then: as §1

B1: human DCR5-myc3 (other)
chain: RKNRPAGAIPSPYKDGSSNNSERWQHQIKEVLASSQEALVVTERKYLKSDWCKTQPLRQTVSEEGCRSRTILNRFCYGQCNSFYIPRHVKKEEESFQSCAFCKPQRVTSVLVELECPGLDPPFRLKKIQKVKQCRCMSVNLSDSDKQTGEQKLISEEDLGGEQKLISEEDLGGEQKLISEEDLGP
notes: Used as serum-free conditioned medium of transiently transfected COS7 cells; also called Human DCR5-myc3 protein; hDCR-5
For B1, the results for the binding result in assay [1], in assay [2] and in assay [3] were “no binding (tested: 1 g/ml (so in the source))”, “no binding” and “no binding”, respectively.
